Experimental data published in PMC4329186.

Biological target: human alpha-thrombin (human, UniProt P00734;P00734 328-363;364-622)
Assay: ctITP-NECEEM capillary electrophoresis; no metal ions; 400 nM thrombin; Tris-HCl sample buffer, no added metal ions, 30 min incubation; Tris and glycine reagents for CE; pH and temperature not given in the material

B1: 29mer thrombin aptamer with Ion Torrent primer handles and spacer (97 nt) (structured_DNA)
DNA: CCTCTCTATGGGCAGTCGGTGATAGTCCGTGGTAGGGCAGGTTGGGGTGACTTAAGGAGTTCAATATCTGAGTCGGAGACACGCAGGGATGAGATGG
binding result: binds
